Assay results published in publication PMC4254770.

Molecular target: maltose binding protein (MBP)-tagged ubiquitin
Assay: ELISA

| binding in ELISA relative to S4WIYLD (set to 1) (relative to S4WIYLD = 1) | reduction of binding relative to wild-type S4WIYLD [%] | Substance |
| --- | --- | --- |
| 0.65 | – | GST-tagged SUVR1 WIYLD domain (domain or fragment) |
| – | 37 | GST-tagged SUVR4 WIYLD domain A32E (domain or fragment) |
| 1.23 | – | GST-tagged SUVR2 WIYLD domain (domain or fragment) |
